Laboratory results as given in PMC4175270.

Assays:
[1] = molecular target: His6-MobC1-129 (plasmid RA3 (IncU), isolated from Aeromonas hydrophila); experiment: cross-linking; His-tagged MobC derivatives (0.1 mg ml^-1) with 0.001%, 0.005% and 0.01% glutaraldehyde; 20% SDS-PAGE, Western blot with anti-His tag antibodies
[2] = molecular target: His6-MobC1-129 (plasmid RA3 (IncU), isolated from Aeromonas hydrophila); experiment: SEC-MALS; gel filtration on Superdex 200 10/300 GL with UV, MALS and refractometer in line; 10 mM Tris pH 8.0, 150 mM NaCl; 0.5 ml of His6-MobC at 0.24 mg ml^-1 or His6-MobC1-129 at 0.04 mg ml^-1; no higher oligomers of MobC detected
[3] = molecular target: His6-MobC (WT MobC of plasmid RA3) (plasmid RA3 (IncU), isolated from Aeromonas hydrophila); experiment: as above

Row | Substance | stoichiometry N [1] | stoichiometry N [2] | stoichiometry N [3]
1 | His6-MobC1-129 (domain or fragment) | 2 | 2 | –
2 | His6-MobC (WT MobC of plasmid RA3) (natural protein) | – | – | 2
